Measurements: the supplement of paper PMC10724198
± gives the standard deviation of the averaged measurements.

What was measured:
[1] = test system: Saccharomyces cerevisiae; experiment: protein stability index of tFT-peptide fusion (C-terminal peptide) (PSI (0-1 scale)); higher = more stable (slower turnover)
Description: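 MPS profiling in S. cerevisiae of the tFT-X12 degron library: putative degron peptides plus stable controls, 12 aa, fused to the C-terminus of a sfGFP-mCherry timer. Cells are FACS-sorted into 8 mCherry/sfGFP bins and deep-sequenced. PSI runs from 0 (unstable) to 1 (stable). Backgrounds are wild type, das1Δ and doa10Δ at 30 °C, and wild type, das1Δ, cdc34-1 and cdc53-1 at 37 °C; 2-3 technical replicates each.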

[2] = test system: Saccharomyces cerevisiae; experiment: as above; settings: genetic background: wild type; temperature: 30 C
[3] = genetic background: cdc34-1, temperature: 37 C
[4] = genetic background: cdc53-1, temperature: 37 C
[5] = genetic background: das1 deletion, temperature: 30 C
[6] = genetic background: das1 deletion, temperature: 37 C
[7] = genetic background: doa10 deletion, temperature: 30 C
[8] = genetic background: wild type, temperature: 30 C
[9] = genetic background: wild type, temperature: 37 C
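Also: PSI is a weighted mean of sequencing reads over stability bins, variants kept only with over 10 reads, mCherry proximal and sfGFP distal, peptide attached via GGGS linker.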

Sequence | protein stability index [1, 3] | protein stability index [1, 4] | protein stability index [1, 5] | protein stability index [1, 6] | protein stability index [1, 7] | protein stability index [1, 8] | protein stability index [1, 9] | protein stability index [2]
VLVVASLRFSFF | 0.207 ± 0.054 | 0.34 ± 0.036 | 0.197 ± 0.029 | 0.40083 ± 0.00033 | 0.173 ± 0.019 | 0.2 ± 0.014 | 0.38 ± 0.0063 | 0.249 ± 0.017
VLVVRVLLSDLV | 0.178 ± 0.02 | 0.255 ± 0.021 | 0.18 ± 0.028 | 0.36571 ± 8.9e-05 | 0.157 ± 0.012 | 0.17 ± 0.012 | 0.338 ± 0.01 | 0.262 ± 0.0089
VLVVWLGICFGY | 0.166 ± 0.014 | 0.201 ± 0.046 | 0.191 ± 0.033 | 0.37 ± 0.0092 | 0.187 ± 0.0077 | 0.201 ± 0.016 | 0.299 ± 0.0044 | 0.259 ± 0.011
VMYRGVRISWFL | 0.576 ± 0.036 | 0.582 ± 0.008 | 0.424 ± 0.021 | 0.504 ± 0.014 | 0.343 ± 0.04 | 0.354 ± 0.036 | 0.449 ± 0.0086 | 0.38459 ± 6.1e-05
VNILFCLFFLLV | 0.449 ± 0.02 | 0.554 ± 0.027 | 0.419 ± 0.021 | 0.564 ± 0.023 | 0.392 ± 0.025 | 0.36 ± 0.0062 | 0.4772 ± 0.0041 | 0.412 ± 0.013
VPQMLVSVCLSN | 0.301 ± 0.014 | 0.376 ± 0.045 | 0.287 ± 0.032 | 0.423 ± 0.021 | 0.219 ± 0.014 | 0.26 ± 0.029 | 0.392 ± 0.033 | 0.348 ± 0.011
VPQQWFAETGRC | 0.72 ± 0.031 | 0.763 ± 0.036 | 0.668 ± 0.026 | 0.7455 ± 0.0051 | 0.657 ± 0.038 | 0.662 ± 0.028 | 0.742 ± 0.014 | 0.745 ± 0.019
VRFPVFFIILFL | 0.0864 ± 0.024 | 0.0743 ± 0.0032 | 0.15 ± 0.029 | 0.235 ± 0.017 | 0.241 ± 0.014 | 0.142 ± 0.029 | 0.202 ± 0.0029 | 0.239 ± 0.018
VRGSPNVMWKSQ | 0.675 ± 0.028 | 0.778 ± 0.01 | 0.647 ± 0.028 | 0.733 ± 0.028 | 0.194 ± 0.0042 | 0.238 ± 0.022 | 0.508 ± 0.033 | 0.398 ± 0.035
VRLHIAMWLRRC | 0.299 ± 0.02 | 0.271 ± 0.022 | 0.316 ± 0.027 | 0.414 ± 0.007 | 0.138 ± 0.015 | 0.0999 ± 0.025 | 0.18975 ± 1.6e-05 | 0.14 ± 0.027
VRNKFSYVLRLN | 0.488 ± 0.024 | 0.678 ± 0.014 | 0.615 ± 0.016 | 0.747 ± 0.0094 | 0.0804 ± 0.019 | 0.11 ± 0.029 | 0.138 ± 0.037 | 0.179 ± 0.016
VRVLPFCWCIVR | 0.177 ± 0.03 | 0.14 ± 0.0084 | 0.188 ± 0.028 | 0.288 ± 0.005 | 0.263 ± 0.019 | 0.187 ± 0.017 | 0.259 ± 0.046 | 0.274 ± 0.0053
VSIVLHSVPCGG | 0.514 ± 0.029 | 0.5211 ± 0.0032 | 0.389 ± 0.019 | 0.54459 ± 0.0005 | 0.361 ± 0.011 | 0.392 ± 0.024 | 0.519 ± 0.011 | 0.453 ± 0.035
VSRVHIRIEGNH | 0.694 ± 0.027 | 0.755 ± 0.028 | 0.622 ± 0.017 | 0.7218 ± 0.0064 | 0.635 ± 0.026 | 0.634 ± 0.035 | 0.70121 ± 0.00047 | 0.528 ± 0.082
VSVQVRCCPWVG | 0.679 ± 0.037 | 0.735 ± 0.013 | 0.622 ± 0.011 | 0.728 ± 0.014 | 0.618 ± 0.031 | 0.629 ± 0.016 | 0.709 ± 0.011 | 0.7153 ± 0.0063
VVATLRCLRCSV | 0.474 ± 0.014 | 0.501 ± 0.052 | 0.346 ± 0.035 | 0.5244 ± 0.0026 | 0.236 ± 0.014 | 0.273 ± 0.043 | 0.441 ± 0.013 | 0.405 ± 0.021
VVCFVVCGFYLG | 0.235 ± 0.018 | 0.316 ± 0.021 | 0.261 ± 0.025 | 0.452 ± 0.011 | 0.224 ± 0.011 | 0.242 ± 0.051 | 0.428 ± 0.024 | 0.205 ± 0.055
VVCLLGIFYGFC | 0.382 ± 0.023 | 0.497 ± 0.045 | 0.313 ± 0.031 | 0.5138 ± 0.00014 | 0.293 ± 0.021 | 0.307 ± 0.031 | 0.51 ± 0.014 | 0.446 ± 0.07
VVLCQVCVLWGW | 0.0623 ± 0.011 | 0.202 ± 0.029 | 0.167 ± 0.031 | 0.252 ± 0.01 | 0.148 ± 0.0088 | 0.151 ± 0.029 | 0.229 ± 0.025 | 0.257 ± 0.016
VVLVLLCIGRLL | 0.367 ± 0.012 | 0.511 ± 0.026 | 0.305 ± 0.033 | 0.5545 ± 0.0033 | 0.27 ± 0.0062 | 0.3 ± 0.026 | 0.475 ± 0.011 | 0.376 ± 0.0063
